Assay [1] deals with human coxsackievirus and adenovirus receptor (CAR) (human) (UniProt P78310). The assay is described as follows: cell-based or functional assay.
Assay [2] has the same target. The experiment in a line: flow cytometry, RmcB staining of CHO cells after Ad5CMVhCAR:CaPi gene transfer.
Assay [3] shares this target. The experiment in a line: flow cytometry, RmcB staining of 3T3 cells after Ad5CMVhCAR:CaPi gene transfer. For orientation: A flow cytometer gives signals particle by particle.

Chain of UniProt P78310 (P78310 20-365): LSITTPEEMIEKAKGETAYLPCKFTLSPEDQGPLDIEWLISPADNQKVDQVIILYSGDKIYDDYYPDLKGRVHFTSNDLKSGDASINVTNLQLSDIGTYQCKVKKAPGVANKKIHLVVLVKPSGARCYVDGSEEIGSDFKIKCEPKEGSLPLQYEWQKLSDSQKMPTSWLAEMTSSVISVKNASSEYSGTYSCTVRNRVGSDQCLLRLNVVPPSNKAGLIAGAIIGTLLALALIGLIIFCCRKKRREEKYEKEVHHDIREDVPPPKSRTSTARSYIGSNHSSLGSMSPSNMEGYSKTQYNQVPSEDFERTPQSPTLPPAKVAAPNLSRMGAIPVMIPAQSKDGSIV

In the case of “Ad5 fiber (endogenous, non-recombinant fiber of the control virus Ad5RSVeGFP) (from UniProt P11818 1-581)”, in assay [1], the infection of 3T3 cells after CAR gene transfer (% eGFP-positive by FACS; 3% without CAR) was found to be 21% and the infection of CHO cells after CAR gene transfer (% eGFP-positive by FACS; 0% without CAR) was 57%.
On to “monoclonal antibodies (mAbs) against CAR (RmcB) (antibody)”, for which the percent of cells positive for CAR in assay [2] came out at 96%; in assay [3] it was 92%.

The values are drawn from patent US20020127721A1.
